Values quoted from earlier work in article PMC3309041.

Target: IL-8 (monomeric) (Homo sapiens) (UniProt P10145)
Conditions: cited from earlier work

IL-8 (monomeric) (Homo sapiens), sequence (P10145 28-99): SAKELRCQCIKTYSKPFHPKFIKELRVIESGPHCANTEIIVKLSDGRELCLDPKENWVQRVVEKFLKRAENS
CXCR1 N-terminal peptide N-terminus, sequence (P21109 11-44): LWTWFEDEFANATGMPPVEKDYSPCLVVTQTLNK

With “CXCR1 N-terminal peptide N-terminus (from UniProt P21109)” as the substance, how does the Kd read?
The Kd was 8.6 µM.
